# Tested on: RBP7910 (Trypanosoma brucei)
# Assay: MST
# Conditions: RBB50: 20 mM HEPES pH 7.6, 150 mM KCl, 5 mM MgCl2, 100 ug/mL BSA, 10% glycerol, 50 nM oligo, room temperature 30-60 min, errors are 68% confidence
row,Sequence,Kd [µM]
1,GGTGGGTTATCGCGCGCGCGCGATCAACTGGG (double strand) [d(GC)6 ds],0.444
2,GGTGGGTTATCGCGCGCGCGCGATCAACTGGG [d(GC)6 ss],0.022
3,GGUGGGUUAUAUUCAUUCAUUCAUCAACUGGG / CCCAGUUGAUGAAUGAAUGAAUAUAACCCACC [r(AUUC)3 ds],1.23
4,GGUGGGUUAUAUUCAUUCAUUCAUCAACUGGG [r(AUUC)3 ss],0.272
5,GGUGGGUUAUAUUUAUUUAUUUAUUUAUCAACUGGG / CCCAGUUGAUAAAUAAAUAAAUAAAUAUAACCCACC [r(AUUU)4 ds],1.88
6,GGUGGGUUAUAUUUAUUUAUUUAUUUAUCAACUGGG [r(AUUU)4 ss],0.18
7,GGUGGGUUAUCGCGCGCGCGCGAUCAACUGGG / CCCAGUUGAUCGCGCGCGCGCGAUAACCCACC [r(GC)6 ds],3.22
8,GGUGGGUUAUCGCGCGCGCGCGAUCAACUGGG [r(GC)6 ss],2.03
9,GGUGGGUUAUUAUAUAUAUAUAAUCAACUGGG / CCCAGUUGAUUAUAUAUAUAUAAUAACCCACC [r(UA)6 ds],1.34
10,GGUGGGUUAUUAUAUAUAUAUAAUCAACUGGG [r(UA)6 ss],0.88
11,GGUGGGUUAUUUUUUUUUUUUUAUCAACUGGG / CCCAGUUGAUAAAAAAAAAAAAAUAACCCACC [r(UUUU)3 ds],1.71
12,GGUGGGUUAUUUUUUUUUUUUUAUCAACUGGG [r(UUUU)3 ss],0.147
